Residue numbers refer to the chain shown, from its start.
Tests used:
[1] = biological target: F-actin (rat, endogenous, 100,000 x g pellet) (rat (endogenous in RMC)) (UniProt P60711); test: co-sedimentation
[2] = biological target: human GST-cofilin (human) (UniProt P23528); test: pull-down
cross-linking [3] = biological target: the molecule itself; test: cross-linking
cross-linking [4] = biological target: the molecule itself; test: cross-linking; remark: listed apart in the source

Sequence of human GST-cofilin (human) (P23528 whole entry): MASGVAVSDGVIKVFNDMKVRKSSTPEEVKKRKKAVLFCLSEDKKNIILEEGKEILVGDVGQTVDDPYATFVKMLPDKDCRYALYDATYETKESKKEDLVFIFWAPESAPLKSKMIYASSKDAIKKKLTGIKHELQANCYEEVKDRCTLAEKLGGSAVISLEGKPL

## disulfide-crosslinked CAP1 dimer (rat, endogenous, from Cd2+-treated cells) (from UniProt Q08163 1-474) (complex)
[1]
  dimer:monomer ratio in the pellet, percent of that in the supernatant: 172%

B1: disulfide-crosslinked CAP1 dimer (rat, endogenous, from Cd2+-treated cells) (complex)
chain: MADMQNLVERLERAVGRLEAVSHTSDMHCGYGDSPSKGAVPYVQAFDSLLANPVAEYLKMSKEIGGDVQKHAEMVHTGLKLERALLVTASQCQQPAGNKLSDLLAPISEQIQEVITFREKNRGSKFFNHLSAVSESIQALGWVALAAKPGPFVKEMNDAAMFYTNRVLKEYRDVDKKHVDWVRAYLSIWTELQAYIKEFHTTGLAWSKTGPVAKELSGLPSGPSVGSGPPPPPPGPPPPPVPTSSGSDDSASRSALFAQINQGESITHALKHVSDDMKTHKNPALKAQSGPVRSGPKPFSAPKPQTSPSPKPATKKEPALLELEGKKWRVENQENVSNLVIDDTELKQVAYIYKCVNTTLQIKGKINSITVDNCKKLGLVFDDVVGIVEIINSRDVKVQVMGKVPTISINKTDGCHAYLSKNSLDCEIVSAKSSEMNVLIPTEGGDFNEFPVPEQFKTLWNGQKLVTTVTEIAG
modifications: intermolecular disulfide crosslink, DTT-sensitive; involves Cys29 (shown by mutagenesis of mouse CAP1)
[2]
  dimer:monomer ratio in the pull-down, percent of that in the total lysate: 220%

B2: adenylyl cyclase-associated protein CAP1 (rat, endogenous, monomer) (natural protein, rat (endogenous in RMC), UniProt Q08163 1-474, looked up)
chain: B1 chain
cross-linking [3]
  stoichiometry N: 2

B3: His-tagged recombinant mouse CAP1 (wild type), from HEK cells (natural protein, UniProt P40124 1-474, looked up)
chain: B1 chain with V87A, V241I, P242S
cross-linking [4]
  binding result: binds

From PMC6925060 (Archives of toxicology, 2017)
